By Km is commonly meant the substrate concentration at which the rate is half of its maximum. The term kcat denotes the number of substrate molecules converted per active site and unit of time at saturation. Usually kcat/Km stands for the turnover number divided by the Michaelis constant.

Data set [1] deals with T1, EhACK (Entamoeba histolytica acetate kinase) (Entamoeba histolytica, UniProt C4M1C3, M324A/Q323A).
T1 construct: gene EHI_170010
Description: biochemical.

In data set [2] the target is T2, EhACK (Entamoeba histolytica acetate kinase) (Entamoeba histolytica, UniProt C4M1C3, D272A/M324I/Q323G/R274A).
T2 construct: gene EHI_170010
Description: biochemical.

Data set [3] addresses T3, EhACK (Entamoeba histolytica acetate kinase) (Entamoeba histolytica, UniProt C4M1C3, M324I/Q323G).
T3 construct: gene EHI_170010
Description: biochemical.

Data set [4] addresses T4, MtACK (Methanosarcina thermophila acetate kinase) (Methanosarcina thermophila, UniProt P38502, G331Q/I332M).
T4 construct: gene ackA; recombinant, produced in E. coli Rosetta2 (DE3) pLysS
T4 sequence (P38502 1-408 G331Q/I332M): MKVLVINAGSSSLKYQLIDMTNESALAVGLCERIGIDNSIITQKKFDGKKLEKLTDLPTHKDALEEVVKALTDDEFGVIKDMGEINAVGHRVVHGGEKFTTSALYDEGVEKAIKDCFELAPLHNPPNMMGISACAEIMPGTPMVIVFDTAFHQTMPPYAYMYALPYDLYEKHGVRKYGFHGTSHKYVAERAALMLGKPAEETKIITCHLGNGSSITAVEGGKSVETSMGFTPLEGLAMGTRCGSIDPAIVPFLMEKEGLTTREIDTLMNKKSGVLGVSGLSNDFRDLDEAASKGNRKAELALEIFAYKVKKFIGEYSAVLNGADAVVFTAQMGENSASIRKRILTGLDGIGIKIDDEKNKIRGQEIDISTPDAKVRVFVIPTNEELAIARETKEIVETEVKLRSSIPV
Description: hydroxamate assay ([…] nm). The format is biochemical. As to conditions: acetyl phosphate-forming direction; MgATP, co-substrate acetate; 100 mM Tris pH 7.5, 600 mM hydroxylamine, 37 °C; apparent.

In data set [5] the target is T5, MtACK (Methanosarcina thermophila acetate kinase) (Methanosarcina thermophila, UniProt P38502).
T5 construct: gene ackA; recombinant, produced in E. coli Rosetta2 (DE3) pLysS
T5 sequence (P38502 1-408): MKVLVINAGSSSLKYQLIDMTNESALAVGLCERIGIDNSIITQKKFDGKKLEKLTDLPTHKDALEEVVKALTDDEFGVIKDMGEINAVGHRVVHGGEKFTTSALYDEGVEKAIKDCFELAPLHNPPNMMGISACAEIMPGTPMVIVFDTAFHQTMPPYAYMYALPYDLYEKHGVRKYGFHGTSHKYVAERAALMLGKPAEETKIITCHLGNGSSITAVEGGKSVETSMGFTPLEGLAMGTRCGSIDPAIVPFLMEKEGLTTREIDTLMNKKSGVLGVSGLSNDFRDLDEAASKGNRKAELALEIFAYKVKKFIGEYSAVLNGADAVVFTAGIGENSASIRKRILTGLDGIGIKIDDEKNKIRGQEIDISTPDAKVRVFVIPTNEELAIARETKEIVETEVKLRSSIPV
Description: hydroxamate assay ([…] nm). The following applies: acetyl phosphate-forming direction; MgATP, co-substrate acetate; 100 mM Tris pH 7.5, 600 mM hydroxylamine, 37 °C; apparent. The class given is biochemical.

The target in data set [6] is T6, EhACK (Entamoeba histolytica acetate kinase) (Entamoeba histolytica, UniProt C4M1C3).
T6 construct: gene EHI_170010; recombinant, produced in E. coli YBS121 delta-ack delta-pta (pREP4)
T6 sequence (C4M1C3 1-392): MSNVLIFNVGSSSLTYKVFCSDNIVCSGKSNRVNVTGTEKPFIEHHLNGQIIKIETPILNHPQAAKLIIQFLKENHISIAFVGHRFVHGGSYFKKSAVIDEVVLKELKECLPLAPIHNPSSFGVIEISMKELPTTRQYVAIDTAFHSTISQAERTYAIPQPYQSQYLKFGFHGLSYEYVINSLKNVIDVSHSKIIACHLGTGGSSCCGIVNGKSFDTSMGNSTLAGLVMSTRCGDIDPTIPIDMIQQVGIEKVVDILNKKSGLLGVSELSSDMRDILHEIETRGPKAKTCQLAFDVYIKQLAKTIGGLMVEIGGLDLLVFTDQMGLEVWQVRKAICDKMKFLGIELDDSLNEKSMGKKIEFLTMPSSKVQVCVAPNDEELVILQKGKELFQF
Description: reverse modified hydroxamate assay ([…] nm). The format is biochemical. As to conditions: read-out: ATP IC50 (mM) / Acetate-forming direction.

Data set [7] concerns the target T4, MtACK (Methanosarcina thermophila acetate kinase). In words: reverse modified hydroxamate assay ([…] nm). The class given is biochemical. The following applies: read-out: ATP IC50 (mM) / Acetate-forming direction.
Data set [8] has as its target T5, MtACK (Methanosarcina thermophila acetate kinase). Description: reverse modified hydroxamate assay ([…] nm). The format is biochemical. The following applies: read-out: ATP IC50 (mM) / Acetate-forming direction.
Substrate in data set [9]: CC(=O)OP(=O)(O)O
Description: purified protein. As to conditions: acetate-forming direction, apparent.

Substrate in data set [10]: O=P(O)(O)OP(=O)(O)O
Description: purified protein. As to conditions: acetyl phosphate-forming direction, co-substrate acetate, 5 mM MgCl2, morpholinoethanesulfonic acid pH 5.5, 600 mM hydroxylamine, 45 °C, apparent.

Substrate in data set [11]: O=P(O)(O)O
Description: purified protein. As to conditions: acetate-forming direction, co-substrate acetyl phosphate, 10 mM MgCl2, 100 mM Tris-HCl pH 7.0, 37 °C, apparent, pH 7.0.

Substrate in data set [12]: CC(=O)O
In words: purified protein. As to conditions: acetyl phosphate-forming direction, co-substrate MgATP, 100 mM Tris pH 7.5, 600 mM hydroxylamine, 37 °C, apparent, pH 7.5.

Substrate in data set [13]: Nc1ncnc2c1ncn2[C@@H]1O[C@H](COP(=O)(O)OP(=O)(O)O)[C@@H](O)[C@H]1O
Description: purified protein. As to conditions: acetate-forming direction, MgADP, co-substrate acetyl phosphate, 100 mM Tris pH 7.5, 37 °C, apparent.

The mark [14] stands for this setting: co-substrate Pi, 10 mM MgCl2, 100 mM Tris-HCl pH 7.0, 37 °C.
[15] abbreviates: co-substrate MgADP, 100 mM Tris pH 7.5, 37 °C.

Regarding `Nc1ncnc2c1ncn2[C@@H]1O[C@H](COP(=O)(O)OP(=O)(O)OP(=O)(O)O)[C@@H](O)[C@H]1O` [ATP], the IC50 in data set [1] was determined as 4.8 ± 0.09 mM; in [2], 2.4 ± 0.19 mM; in data set [3], 4.2 ± 0.3 mM; in data set [6], 6.1 ± 0.05 mM. In addition, the Km is 9400 ± 270 µM in data set [4] and 1700 ± 30 µM in data set [5].

As to `O=P(O)(O)OP(=O)(O)O` [PPi], the figures for the IC50 in data set [7] and in data set [8] were 4 ± 0.28 mM and 3.3 ± 0.06 mM, respectively.

B1: EhACK (Entamoeba histolytica acetate kinase) (Entamoeba histolytica HM-1:IMSS) (protein)
chain: MSNVLIFNVGSSSLTYKVFCSDNIVCSGKSNRVNVTGTEKPFIEHHLNGQIIKIETPILNHPQAAKLIIQFLKENHISIAFVGHRFVHGGSYFKKSAVIDEVVLKELKECLPLAPIHNPSSFGVIEISMKELPTTRQYVAIDTAFHSTISQAERTYAIPQPYQSQYLKFGFHGLSYEYVINSLKNVIDVSHSKIIACHLGTGGSSCCGIVNGKSFDTSMGNSTLAGLVMSTRCGDIDPTIPIDMIQQVGIEKVVDILNKKSGLLGVSELSSDMRDILHEIETRGPKAKTCQLAFDVYIKQLAKTIGGLMVEIGGLDLLVFTDQMGLEVWQVRKAICDKMKFLGIELDDSLNEKSMGKKIEFLTMPSSKVQVCVAPNDEELVILQKGKELFQF
With B1, in the data set “purified protein [9]” (setting [14]), the Km came to 570 ± 30 µM, the kcat came out at 266 ± 12 s⁻¹ and the kcat/Km is 467000 ± 44000 M⁻¹ s⁻¹. Also, in “purified protein [10]”, the Michaelis-Menten constant (Km) came out at 2100 ± 330 µM, the catalytic constant (kcat) was 0.9 ± 0.03 s⁻¹ and the kcat/Km came to 440 ± 60 M⁻¹ s⁻¹. Moreover, in the data set “purified protein [11]”, the Michaelis-Menten constant (Km) was 14000 ± 1200 µM, the kcat turned out to be 196 s⁻¹ and the kcat/Km is 14000 M⁻¹ s⁻¹.

B2: MtACK (Methanosarcina thermophila acetate kinase) (Methanosarcina thermophila) (protein)
chain: MKVLVINAGSSSLKYQLIDMTNESALAVGLCERIGIDNSIITQKKFDGKKLEKLTDLPTHKDALEEVVKALTDDEFGVIKDMGEINAVGHRVVHGGEKFTTSALYDEGVEKAIKDCFELAPLHNPPNMMGISACAEIMPGTPMVIVFDTAFHQTMPPYAYMYALPYDLYEKHGVRKYGFHGTSHKYVAERAALMLGKPAEETKIITCHLGNGSSITAVEGGKSVETSMGFTPLEGLAMGTRCGSIDPAIVPFLMEKEGLTTREIDTLMNKKSGVLGVSGLSNDFRDLDEAASKGNRKAELALEIFAYKVKKFIGEYSAVLNGADAVVFTAGIGENSASIRKRILTGLDGIGIKIDDEKNKIRGQEIDISTPDAKVRVFVIPTNEELAIARETKEIVETEVKLRSSIPV
For the molecule B2, in the data set “purified protein [12]”, the Km came to 20000 ± 300 µM, the kcat worked out at 789 s⁻¹ and the catalytic efficiency (kcat/Km) amounted to 39000 M⁻¹ s⁻¹. For the same molecule, in the data set “purified protein [9]” (setting [15]), the Km is 1200 ± 90 µM, the turnover number (kcat) stood at 1550 ± 54 s⁻¹ and the catalytic efficiency (kcat/Km) came out at 1.29e+06 ± 56000 M⁻¹ s⁻¹. In “purified protein [13]”, the Km amounted to 1800 ± 130 µM, the kcat worked out at 1915 ± 15 s⁻¹ and the kcat/Km came out at 1.07e+06 ± 69000 M⁻¹ s⁻¹.

B3: MtACK (Methanosarcina thermophila acetate kinase) (Methanosarcina thermophila; G331Q/I332M) (protein)
chain: MKVLVINAGSSSLKYQLIDMTNESALAVGLCERIGIDNSIITQKKFDGKKLEKLTDLPTHKDALEEVVKALTDDEFGVIKDMGEINAVGHRVVHGGEKFTTSALYDEGVEKAIKDCFELAPLHNPPNMMGISACAEIMPGTPMVIVFDTAFHQTMPPYAYMYALPYDLYEKHGVRKYGFHGTSHKYVAERAALMLGKPAEETKIITCHLGNGSSITAVEGGKSVETSMGFTPLEGLAMGTRCGSIDPAIVPFLMEKEGLTTREIDTLMNKKSGVLGVSGLSNDFRDLDEAASKGNRKAELALEIFAYKVKKFIGEYSAVLNGADAVVFTAQMGENSASIRKRILTGLDGIGIKIDDEKNKIRGQEIDISTPDAKVRVFVIPTNEELAIARETKEIVETEVKLRSSIPV
With B3, in the data set “purified protein [13]”, the Km was found to be 5700 ± 560 µM, the kcat came to 12 ± 0.5 s⁻¹ and the kcat/Km was determined as 2000 ± 140 M⁻¹ s⁻¹.

The values are drawn from publication PMC5517563 (Scientific Reports, 2017).
